Results from patent publication US20240425612A1.

Tests used:
[1] = biological target: hFcγRIIIa-158V-streptavidin-His (human) (UniProt P08637); assay: BLI
[2] = biological target: hFcγRIIIa-158F-streptavidin-His (human) (UniProt P08637); assay: BLI
Sequence of hFcγRIIIa-158F-streptavidin-His (human) (P08637 17-208): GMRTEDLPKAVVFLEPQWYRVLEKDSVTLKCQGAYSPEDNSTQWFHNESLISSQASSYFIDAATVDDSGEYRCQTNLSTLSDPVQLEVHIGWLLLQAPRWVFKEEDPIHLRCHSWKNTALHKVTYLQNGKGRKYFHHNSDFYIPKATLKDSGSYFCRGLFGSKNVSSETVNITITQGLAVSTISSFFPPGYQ

Sequence of hFcγRIIIa-158V-streptavidin-His (human) (P08637 17-208 F176V): as the sequence (P08637 17-208) above, with F160V counted along it

Kd [1]: 46.5 nM
Kd [2]: 67.3 nM
Substance: Trastuzumab-DE (S239D/I332E) from Xencor
